Test results taken from patent publication US20190002533A1 (Novartis, published 2019).
Changes are numbered by the printed parent chain.

B1: 2077-26-1 (antibody, V domains shown)
VH: EVQLQQSGPDLVKPGASMKLSCKASGYSFTGYTMNWVKQSHGKNLEWIGLFNPYNGGPSYNQKFKGKATLTVDKSSSTAYMELLSLTPEDSAVYYCARLRYYGIGDDFFDYWGQGTTLTVSS
VL: DIVMTQSHKFMSTSVGDRVSITCKASQDVGTAVAWYQEKPGQSPKLLIYWASTRHTGVPDRFTGSGSGTDFTLTISNVQSEDLAYYFCQQYSNYPYTFGGGTKLEIK
B2: 2077-28-2 (antibody, V domains shown)
VH: B1 VH with D10E, L20I, P58A, S59T, K63R, E82D, P88S, A97T, Y101K
VL: B1 VL with E38Q, Y85D, N93T, P95T
B3: P8D11 (antibody, human IgG1, lambda)
heavy: not shown
light: QSVLTQPPSVSVAPGKTARITCGGDNIGSRPVHWYQQKPGQAPILVVYDDSNRPSGIPERFSGSNSGNTATLTISRVEAGDEADYYCQVWSSSTDHPFGGGTKVTVLGQPKAAPSVTLFPPSSEELQANKATLVCLISDFYPGAVTVAWKADSSPVKAGVETTTPSKQSNNKYAASSYLSLTPEQWKSHRSYSCQVTHEGSTVEKTVAPTECS
B4: NEG447A (antibody, human IgG1, lambda, V domains shown)
VH: QVQLQESGPGLVKPSETLSLTCTVSGGSISRDYWSWVRQPPGAGLEWIGNIYYSGSTNYNPSLKSRVTISVATNKKQFSLKLTSVTAADTAVYYCARVPGCSSTSCIDGWFDPWGQGILVTVSS
VL: QSVLTQPPSVSAAPGQKVTISCSGSSSNIGNTYVSWYQQLPGTAPKLLIYDNNKRPSGIPDRFSGSKSGTSATLGITGLQTGDEADYYCGTWDSSLSAWVFGGGTRLTVLG

Key:
JCV VLPs = target: T1, JCV VLPs (JC virus (JCV), UniProt P03089 1-354); experiment: ELISA on plate-coated JCV VLPs (OD 450 nm)
T1 construct: also called JC virus VLPs; JCV consensus

[1] = target: VP1 of the pooled BKV serotype I resistance-associated variant (RAV) virus with 20 amino acid changes (BK virus (BKV) serotype I); experiment: cell-based or functional assay
[2] = target: VP1 on chimeric infectious BKV serotype II (BK virus (BKV) serotype II, UniProt P14996 1-362); experiment: cell-based or functional assay

Row | Binder | EC50 (read off the curve) (JCV VLPs) [nM] | also measured
1 | B1 | ~0.07 | –
2 | B2 | ~0.08 | –
3 | B3 | – | shift in EC50 of neutralisation against wild-type virus [1]: 3.9 fold
4 | B4 | – | EC90 of neutralisation, fold change [2]: ~8 fold
